Measurements from patent US20120114590A1 (priority 2005, published 2012).
Read-outs that look alike come from different tables or passages of the source.

How the values were obtained:
[1] = system: Influenza (type A [H3N2]); format: cell-based; conditions: Vero
[2] = system: liver, spleen and blood of mice; assay: ISG gene expression (OAS, Pkr, Mx1) in liver, spleen and blood of injected C57BL/6 mice (real-time PCR); format: in vivo, mouse; conditions: for OAS-1 hr / OAS-6 hr / OAS-24 hr / OAS-48 hr: single injection of 250 μg i.v., average of 5 animals; for OAS (24 hr): fold expression relative to HPRT
Procedure: Mice were sacrificed at various time points (1 hr-48 hr). Spleens and livers were isolated from mice, and RNA was isolated. RNA was also isolated from the blood cells. The cells were pelleted and RNA isolated from pellets using RNAEasy®-kit (Qiagen). RNA was treated with DNase (Amicon) to rid RNA of any contaminating DNA. cDNA was generated using Perkin-Elmer RT mix (Perkin-Elmer). ISG gene induction was measured by real-time PCR using primers and probes specific for mouse OAS, Pkr and Mx1. To obtain quantitative data, HPRT real-time PCR was duplexed with ISG PCR. A standard curve was calculated using known amounts of IFN-stimulated mouse PBLs. All data are shown as expression relative to internal HPRT expression.

[3] = system: Venezuelan equine encephalitis virus; format: cell-based; conditions: Vero cells, Neutral Red Assay
West Nile virus [4] = format: cell-based; conditions: Vero
[5] = system: Influenza (type A [H3N2]); format: cell-based; conditions: Maden-Darby Canine Kidney cells, Neutral Red Assay
[6] = system: Respiratory syncytial virus; format: cell-based
Coxsackie B4 virus [7] = format: cell-based; conditions: KB
Coxsackie B4 virus [8] = format: cell-based; conditions: KB cells, Neutral Red Assay
Rhino 9 = format: cell-based, rhino virus; conditions: Rhino 9, HeLa cells, Neutral Red Assay
West Nile virus [9] = format: cell-based; conditions: Vero cells, Neutral Red Assay
HHV-8 = HHV-8 replication in BCBL-1 cells (TaqMan PCR extracellular HHV-8 DNA; dye uptake TC50); format: cell-based, human herpesvirus-8
Procedure: The therapeutic index (TI) is calculated as TC50/IC50.

Dengue virus = format: cell-based; conditions: Vero cells, Neutral Red Assay
Pichinde virus = format: cell-based
Rhino 2 = format: cell-based, rhino virus; conditions: Rhino 2, KB cells, Neutral Red Assay
[10] = system: human marrow mononuclear cells
Adenovirus [11] = format: cell-based
[12] = system: Influenza (type A [H3N2]); format: cell-based; conditions: Maden-Darby Canine Kidney
adenoviral vector AdGFP = assay: Adenoviral vector (AdGFP) liver pathology model in C57Bl/6 mice; conditions: AdGFP-infected C57Bl/6 mice, 50 μg i.p., 7 doses
Adenovirus [13] = format: cell-based; conditions: A549 cells, Neutral Red Assay
[14] = system: Venezuelan equine encephalitis virus; format: cell-based; conditions: Vero
Parainfluenza virus = format: cell-based; conditions: MA-104 cells, Neutral Red Assay
OAS = OAS activity in serum and plasma of mice (OAS radioimmunoassay); format: in vivo, mouse; conditions: C57BL/6 mice
Procedure: Serum and plasma were isolated from mice at varying time points, and OAS activity was measured using the OAS radioimmunoassay (RIA) kit from Eiken Chemicals (Tokyo, Japan).

AML-12 cells = assay: ISG induction in the mouse liver cell line AML-12 (real-time PCR); format: cell-based; conditions: AML-12, 20 ng/ml, 48 hour time point; mRNA relative to HPRT gene expression
Procedure: AML-12 cells were plated in 6-well plates in complete DMEM media at a concentration of 2×10^6 cells/well. […] As a control, cells were either stimulated with mouse IFNα (positive control) or unstimulated (negative). […] RNA was isolated from cell pellets using RNAEasy-kit® (Qiagen, Valencia, Calif.). RNA was treated with DNase (Millipore, Billerica, Mass.) to clean RNA of any contaminating DNA. cDNA was generated using Perkin-Elmer RT mix. ISG gene induction was evaluated by real-time PCR using primers and probes specific for mouse OAS, Pkr and Mx1. To obtain quantitative data, HPRT real-time PCR was duplexed with ISG PCR. A standard curve was obtained using known amounts of RNA from IFN-stimulated mouse PBLs. All data are shown as expression relative to internal HPRT expression.

B1: IL-29: human IL-29 cytokine polypeptide (zcyto21), e.g. SEQ ID NO:20 (protein, listed as Homo sapiens)
chain: MAAAWTVVLVTLVLGLAVAGPVPTSKPTTTGKGCHIGRFKSLSPQELASFKKARDALEESLKLKNWSCSSPVFPGNWDLRLLQVRERPVALEAELALTLKVLEAAAGPALEDVLDQPLHTLHHILSQLQACIQPQPTAGPRPRGRLHHWLHRLQEAPKKESAGCLEASVTFNLFRLLTRDLKYVADGNLCLRTSTHPEST
modifications: SIGNAL (1)...(19)
[1]
  EC50 Visual: >10 µg/mL
[1]; numerator of SI
  IC50 Visual: >10 µg/mL
[2]; C57BL/6 mice
  sustained expression of ISGs above control mice: up to 48 hours
  time of peak expression of ISGs after injection: 1 to 6 h
[2]; C57BL/6 mice, i.p or i.v, 10 μg-250 μg
  ISG gene expression (OAS, Pkr, Mx1) in the livers, spleen and blood of mice: induced ISG gene expression
[2]; blood, C57BL/6 mice
  OAS-1 hr: 12 fold expression relative to HPRT gene expression
  OAS-6 hr: 18 fold expression relative to HPRT gene expression
  OAS-24 hr: 11 fold expression relative to HPRT gene expression
  OAS-48 hr: 10 fold expression relative to HPRT gene expression
[2]; liver, C57BL/6 mice
  OAS-1 hr: 2.5 fold expression relative to HPRT gene expression
  OAS-6 hr: 4 fold expression relative to HPRT gene expression
  OAS-24 hr: 2.5 fold expression relative to HPRT gene expression
  OAS-48 hr: 2.8 fold expression relative to HPRT gene expression
[2]; mice injected with 10 μg
  OAS (24 hr): 3.7
[2]; mice injected with 50 μg
  OAS (24 hr): 4.2
[2]; mice injected with 250 μg
  OAS (24 hr): 6
[2]; spleen, C57BL/6 mice
  OAS-1 hr: 4 fold expression relative to HPRT gene expression
  OAS-6 hr: 6 fold expression relative to HPRT gene expression
  OAS-24 hr: 3.2 fold expression relative to HPRT gene expression
  OAS-48 hr: 3.2 fold expression relative to HPRT gene expression
[3]
  EC50 NR: 0.05 µg/mL
  IC50 NR: >10 µg/mL
West Nile virus [4]
  EC50 Visual: 0.032 ng/mL
West Nile virus [4]; numerator of SI
  IC50 Visual: >10 µg/mL
[5]
  EC50 NR: >10 µg/mL
  IC50 NR: >10 µg/mL
[6]; MA-104
  EC50 Visual: >10 µg/mL
[6]; MA-104, numerator of SI
  IC50 Visual: >10 µg/mL
Coxsackie B4 virus [7]
  EC50 Visual: >10 µg/mL
Coxsackie B4 virus [7]; numerator of SI
  IC50 Visual: >10 µg/mL
Coxsackie B4 virus [8]
  EC50 NR: >10 µg/mL
  IC50 NR: >10 µg/mL
Rhino 9
  EC50 NR: 0.982 µg/mL
  IC50 NR: >10 µg/mL
West Nile virus [9]
  EC50 NR: 0.00025 µg/mL
  IC50 NR: >10 µg/mL
HHV-8
  TI (TC50/IC50): > 1.85
HHV-8; six days
  IC50 (extracellular HHV-8 DNA): 6.5 µg/mL
Dengue virus
  EC50 NR: 0.05 µg/mL
  IC50 NR: >10 µg/mL
Pichinde virus
  EC50 Visual: >10 µg/mL
  IC50 Visual: >10 µg/mL
Rhino 2
  EC50 NR: >10 µg/mL
  IC50 NR: >10 µg/mL
[10]; in the presence of IL-2 or IL-15
  bone marrow cell expansion: small inhibition
[10]; in the presence of IL-3, IL-4, IL-5, IL-7, IL-10, IL-12, IL-21 or no added cytokine
  expansion of bone marrow cells: no significant effect
Adenovirus [11]; A549
  EC50 Visual: >10 µg/mL
Adenovirus [11]; A549, numerator of SI
  IC50 Visual: >10 µg/mL
[12]
  EC50 Visual: >10 µg/mL
[12]; numerator of SI
  IC50 Visual: >10 µg/mL
Adenoviral vector AdGFP
  liver histology: cellular changes versus PBS treatment group: less proliferation of sinusoidal cells, fewer mitotic figures and fewer changes in the hepatocytes
  liver histology: liver and inflammation scores versus PBS-treated group: lower liver and inflammation scores
Adenoviral vector AdGFP; n=8
  average serum AST: 162 U/L
  serum ALT: 184 U/L
Adenovirus [13]
  EC50 NR: >10 µg/mL
  IC50 NR: >10 µg/mL
[14]
  EC50 Visual: 0.012 µg/mL
[14]; numerator of SI
  IC50 Visual: >10 µg/mL
Parainfluenza virus
  EC50 NR: >10 µg/mL
  IC50 NR: >10 µg/mL
OAS; i.v, 10 μg-250 μg
  OAS activity in the serum and plasma of mice: induced OAS activity
OAS; plasma, 1 hr, 250 μg i.v.
  OAS-1 hr (OAS activity): 80 pmol/dL of plasma
OAS; plasma, 6 hr, 250 μg i.v.
  OAS-6 hr (OAS activity): 80 pmol/dL of plasma
OAS; plasma, 24 hr, 250 μg i.v.
  OAS-24 hr (OAS activity): 180 pmol/dL of plasma
OAS; plasma, 48 hr, 250 μg i.v.
  OAS-48 hr (OAS activity): 200 pmol/dL of plasma
AML-12 cells
  Mx1: 0.07
  OAS: 0.04
  PkR: 0.02
